Assay results taken from patent US11655308B2, “HM-3 fusion protein and application thereof” (TASLY BIOPHARMACEUTICALS CO., LTD., priority 2017, dated 2023).
Several values for one entry are separate records, joined by “and”; a condition that tells them apart may be missing. Equal entries are not always repeated.

What was measured:
[1] = tested on: human macrophage U937; experiment: TNF-α production by LPS-induced human macrophage U937 (ELISA); assay type: cell-based
Description: Experimental method: Human macrophage U937 was cultured in RPMI-1640 medium containing 10% fetal bovine serum and double antibodies in a constant temperature incubator at 37° C. under the condition of 5% CO2, and the medium was replaced every 2 days. U937 cells in the logarithmic phase were collected, resuspended and adjusted to the concentration of 5×10^5/mL. 100 μL of cells was added to each well of a 96-well plate overnight and induced with LPS (1 μg/mL) in the following day, where n=3. At the same time, the cells were treated with agents, and respectively divided into a positive control group adalimumab, an HM-3 polypeptide group, an mPEG-SC-HM-3 polypeptide group, an HM-3 fusion protein (TSL-1, TSL-2, TSL-3, TSL-4) group, and the specific dosing scheme was shown in Table 5.
48 h after the agents worked, culture medium was collected and centrifuged, and supernatant was taken to measure the content of TNF-α therein by ELISA. Test results were expressed as mean±SD, and statistical T test was performed. *P<0.05 indicates significant difference, **P<0.01 indicates extremely significant difference. Based upon the results, the efficacy of the HM-3 fusion protein against rheumatoid arthritis was screened.

[2] = Pharmacokinetics after single subcutaneous injection (double-antibody sandwich ELISA)

mIgG4-Fc-(GGGGS)3-HM-3 [TSL-4]
inhibitory effect on TNF-α compared with HM-3 and mPEG-SC-HM-3 [1]: much better than that of polypeptide HM-3 and mPEG-SC-HM-3
TNF-α content in cell supernatant ([1]; 9 μM, LPS 1 μg/mL, 48 h, negative group 77.6±19.6): 22.2 ± 8.9 pg/mL
Plasma concentration ([2]; 4.17 mg/kg sc, 0.00 h, Mean): 0 µg/mL
Plasma concentration ([2]; 4.17 mg/kg sc, 0.00 h, single rats No. 1-5): 0 µg/mL
Plasma concentration ([2]; 4.17 mg/kg sc, 0.50 h, Mean): 0.0818 µg/mL
Plasma concentration ([2]; 4.17 mg/kg sc, 0.50 h, single rats No. 1-5): 0.00626 µg/mL and 0.0985 µg/mL and 0.131 µg/mL and 0.0504 µg/mL and 0.122 µg/mL
Plasma concentration ([2]; 4.17 mg/kg sc, 1.00 h, Mean): 0.135 µg/mL
Plasma concentration ([2]; 4.17 mg/kg sc, 1.00 h, single rats No. 1-5): 0.0588 µg/mL and 0.162 µg/mL and 0.168 µg/mL and 0.136 µg/mL and 0.151 µg/mL
Plasma concentration ([2]; 4.17 mg/kg sc, 3.00 h, Mean): 0.388 µg/mL
Plasma concentration ([2]; 4.17 mg/kg sc, 3.00 h, single rats No. 1-5): 0.238 µg/mL and 0.382 µg/mL and 0.412 µg/mL and 0.338 µg/mL and 0.570 µg/mL
Plasma concentration ([2]; 4.17 mg/kg sc, 5.00 h, Mean): 0.573 µg/mL
Plasma concentration ([2]; 4.17 mg/kg sc, 5.00 h, single rats No. 1-5): 0.667 µg/mL and 0.482 µg/mL and 0.575 µg/mL and 0.374 µg/mL and 0.766 µg/mL
Plasma concentration ([2]; 4.17 mg/kg sc, 6.00 h, Mean): 0.894 µg/mL
Plasma concentration ([2]; 4.17 mg/kg sc, 6.00 h, single rats No. 1-5): 1.278 µg/mL and 0.699 µg/mL and 1.024 µg/mL and 0.491 µg/mL and 0.978 µg/mL
Plasma concentration ([2]; 4.17 mg/kg sc, 7.00 h, Mean): 1.297 µg/mL
Plasma concentration ([2]; 4.17 mg/kg sc, 7.00 h, single rats No. 1-5): 1.696 µg/mL and 0.903 µg/mL and 1.556 µg/mL and 0.914 µg/mL and 1.415 µg/mL
Plasma concentration ([2]; 4.17 mg/kg sc, 8.00 h, Mean): 1.356 µg/mL
Plasma concentration ([2]; 4.17 mg/kg sc, 8.00 h, single rats No. 1-5): 1.383 µg/mL and 1.584 µg/mL and 1.319 µg/mL and 1.407 µg/mL and 1.088 µg/mL
Plasma concentration ([2]; 4.17 mg/kg sc, 10.00 h, Mean): 1.058 µg/mL
Plasma concentration ([2]; 4.17 mg/kg sc, 10.00 h, single rats No. 1-5): 1.192 µg/mL and 1.305 µg/mL and 0.854 µg/mL and 0.960 µg/mL and 0.980 µg/mL
Plasma concentration ([2]; 4.17 mg/kg sc, 12.00 h, Mean): 0.771 µg/mL
Plasma concentration ([2]; 4.17 mg/kg sc, 12.00 h, single rats No. 1-5): 0.947 µg/mL and 0.964 µg/mL and 0.712 µg/mL and 0.363 µg/mL and 0.867 µg/mL
Plasma concentration ([2]; 4.17 mg/kg sc, 16.00 h, Mean): 0.468 µg/mL
Plasma concentration ([2]; 4.17 mg/kg sc, 16.00 h, single rats No. 1-5): 0.767 µg/mL and 0.682 µg/mL and 0.237 µg/mL and 0.183 µg/mL and 0.471 µg/mL
Plasma concentration ([2]; 4.17 mg/kg sc, 20.00 h, Mean): 0.205 µg/mL
Plasma concentration ([2]; 4.17 mg/kg sc, 20.00 h, single rats No. 1-5): 0.249 μg/mL and 0.252 μg/mL and 0.179 μg/mL and 0.172 μg/mL (2×)
Plasma concentration ([2]; 4.17 mg/kg sc, 24.00 h, Mean): 0.100 µg/mL
Plasma concentration ([2]; 4.17 mg/kg sc, 24.00 h, single rats No. 1-5): 0.0638 μg/mL and 0.0738 μg/mL and 0.0533 μg/mL and 0.155 μg/mL (2×)
Plasma concentration ([2]; 4.17 mg/kg sc, 28.00 h, Mean): 0.0667 µg/mL
Plasma concentration ([2]; 4.17 mg/kg sc, 28.00 h, single rats No. 1-5): 0.0454 μg/mL and 0.0406 μg/mL and 0.0381 μg/mL and 0.105 μg/mL (2×)
Plasma concentration ([2]; 4.17 mg/kg sc, 41.00 h, Mean): 0.0545 µg/mL
Plasma concentration ([2]; 4.17 mg/kg sc, 41.00 h, single rats No. 1-5): 0.0298 μg/mL and 0.0288 μg/mL and 0.0231 μg/mL and 0.0954 μg/mL (2×)
Plasma concentration ([2]; 4.17 mg/kg sc, 53.00 h, Mean): 0.0366 µg/mL
Plasma concentration ([2]; 4.17 mg/kg sc, 53.00 h, single rats No. 1-5): 0.0108 µg/mL and 0.0074 µg/mL and 0.0171 µg/mL and 0.0669 µg/mL and 0.0809 µg/mL
Plasma concentration ([2]; 4.17 mg/kg sc, 65.00 h, Mean): 0.0233 µg/mL
Plasma concentration ([2]; 4.17 mg/kg sc, 65.00 h, single rats No. 1-5): 0.008536 µg/mL and 0.003139 µg/mL and 0.0168 µg/mL and 0.0440 µg/mL and 0.044 µg/mL
Plasma concentration ([2]; 4.17 mg/kg sc, 77.00 h, Mean): 0.0114 µg/mL
Plasma concentration ([2]; 4.17 mg/kg sc, 77.00 h, single rats No. 1-5): 0.005846 µg/mL and 0.002666 µg/mL and 0.0125 µg/mL and 0.0181 µg/mL and 0.01811 µg/mL
AUC 0-77 ([2]; 4.17 mg/kg single sc): 7.055774 µg·h/mL
AUC 0-∞ ([2]; 4.17 mg/kg single sc): 9.006668 ± 3.859519 µg·h/mL
MRT 0-77 ([2]; 4.17 mg/kg single sc): 14.880 h
MRT 0-∞ ([2]; 4.17 mg/kg single sc): 17.330 h
Tmax ([2]; 4.17 mg/kg single sc): 7.4 ± 0.55 h
ka ([2]; 4.17 mg/kg single sc): 0.258
t½ka (absorption half-life) ([2]; 4.17 mg/kg single sc): 2.265 h
t½ke (elimination half-life) ([2]; 4.17 mg/kg single sc): 30.710 ± 3.100 h
α, ke ([2]; 4.17 mg/kg single sc): 0.090
Plasma concentration ([2]; 12.5 mg/kg sc, 0.50 h, Mean): 0.848 µg/mL
Plasma concentration ([2]; 12.5 mg/kg sc, 0.50 h, single rats No. 1-5): 0.176 µg/mL and 0.741 µg/mL and 0.995 µg/mL and 0.598 µg/mL and 1.728 µg/mL
Plasma concentration ([2]; 12.5 mg/kg sc, 1.00 h, Mean): 1.877 µg/mL
Plasma concentration ([2]; 12.5 mg/kg sc, 1.00 h, single rats No. 1-5): 0.740 µg/mL and 1.435 µg/mL and 1.875 µg/mL and 1.153 µg/mL and 4.180 µg/mL
Plasma concentration ([2]; 12.5 mg/kg sc, 3.00 h, Mean): 4.078 µg/mL
Plasma concentration ([2]; 12.5 mg/kg sc, 3.00 h, single rats No. 1-5): 1.459 µg/mL and 2.970 µg/mL and 4.100 µg/mL and 2.070 µg/mL and 9.793 µg/mL
Plasma concentration ([2]; 12.5 mg/kg sc, 5.00 h, Mean): 7.518 µg/mL
Plasma concentration ([2]; 12.5 mg/kg sc, 5.00 h, single rats No. 1-5): 2.030 µg/mL and 5.512 µg/mL and 8.329 µg/mL and 6.748 µg/mL and 14.973 µg/mL
Plasma concentration ([2]; 12.5 mg/kg sc, 6.00 h, Mean): 9.970 µg/mL
Plasma concentration ([2]; 12.5 mg/kg sc, 6.00 h, single rats No. 1-5): 2.337 µg/mL and 7.869 µg/mL and 11.753 µg/mL and 9.720 µg/mL and 18.172 µg/mL
Plasma concentration ([2]; 12.5 mg/kg sc, 7.00 h, Mean): 13.413 µg/mL
Plasma concentration ([2]; 12.5 mg/kg sc, 7.00 h, single rats No. 1-5): 3.372 µg/mL and 8.202 µg/mL and 11.959 µg/mL and 7.582 µg/mL and 35.951 µg/mL
Plasma concentration ([2]; 12.5 mg/kg sc, 8.00 h, Mean): 10.626 µg/mL
Plasma concentration ([2]; 12.5 mg/kg sc, 8.00 h, single rats No. 1-5): 4.395 µg/mL and 6.684 µg/mL and 10.711 µg/mL and 6.343 µg/mL and 24.998 µg/mL
Plasma concentration ([2]; 12.5 mg/kg sc, 10.00 h, Mean): 8.284 µg/mL
Plasma concentration ([2]; 12.5 mg/kg sc, 10.00 h, single rats No. 1-5): 3.014 µg/mL and 5.271 µg/mL and 9.706 µg/mL and 6.000 µg/mL and 17.430 µg/mL
Plasma concentration ([2]; 12.5 mg/kg sc, 12.00 h, Mean): 7.390 µg/mL
Plasma concentration ([2]; 12.5 mg/kg sc, 12.00 h, single rats No. 1-5): 2.663 µg/mL and 4.448 µg/mL and 7.496 µg/mL and 5.562 µg/mL and 16.780 µg/mL
Plasma concentration ([2]; 12.5 mg/kg sc, 16.00 h, Mean): 6.292 µg/mL
Plasma concentration ([2]; 12.5 mg/kg sc, 16.00 h, single rats No. 1-5): 2.587 µg/mL and 3.719 µg/mL and 6.053 µg/mL and 4.976 µg/mL and 14.124 µg/mL
